# Assay results as given in US11491212.
# B1: FIXa Y155F/I251S/R318Y/R338E/R403E/E410N (protein)
# chain 1: not shown
# chain 2: not shown
# B2: FIXa I251S/R318Y/R338E/R403E/E410N (protein)
# chain 1: not shown
# chain 2: not shown
# B3: FIXa D104N/K106S/Y155F/K228N/K247N/N249S (protein)
# chain 1: not shown
# chain 2: not shown
# B4: FIXa D104N/K106S/K247N/N249S/R318Y/R338E/R403E/E410N (protein)
# chain 1: not shown
# chain 2: not shown
# B5: FIXa Y259F/K265T/Y345T (protein)
# chain 1: not shown
# chain 2: not shown
# B6: FIXa Y155F/K247N/N249S/R318Y/R338E/E410N (protein)
# chain 1: not shown
# chain 2: not shown
# B7: FIXa I251S/R318Y/R338E/E410N (protein)
# chain 1: not shown
# chain 2: not shown
# B8: FIXa R318Y/R338E/R403E/E410S (protein)
# chain 1: not shown
# chain 2: not shown
# B9: FIXa A103N/N105S/K247N/N249S/R318Y/R338E/R403E/E410N (protein)
# chain 1: not shown
# chain 2: not shown
# B10: FIXa Y155F/K247N/N249S/R318Y/R338E/R403E/E410N (protein)
# chain 1: not shown
# chain 2: not shown
# B11: FIXa K247N/N249S/R318Y/R338E/R403E/E410N (protein)
# chain 1: not shown
# chain 2: not shown
# B12: FIXa Y155F/K228N/R318Y/R338E/R403E/E410N (protein)
# chain 1: not shown
# chain 2: not shown
# B13: FIXa D85N/K228N/R318Y/R338E/R403E/E410N (protein)
# chain 1: not shown
# chain 2: not shown
# B14: FIXa K247N/N249S/R318Y/R338E/E410N (protein)
# chain 1: not shown
# chain 2: not shown
# Molecular target: Factor X (FX), P00742
# Sequence (P00742 whole entry, looked up): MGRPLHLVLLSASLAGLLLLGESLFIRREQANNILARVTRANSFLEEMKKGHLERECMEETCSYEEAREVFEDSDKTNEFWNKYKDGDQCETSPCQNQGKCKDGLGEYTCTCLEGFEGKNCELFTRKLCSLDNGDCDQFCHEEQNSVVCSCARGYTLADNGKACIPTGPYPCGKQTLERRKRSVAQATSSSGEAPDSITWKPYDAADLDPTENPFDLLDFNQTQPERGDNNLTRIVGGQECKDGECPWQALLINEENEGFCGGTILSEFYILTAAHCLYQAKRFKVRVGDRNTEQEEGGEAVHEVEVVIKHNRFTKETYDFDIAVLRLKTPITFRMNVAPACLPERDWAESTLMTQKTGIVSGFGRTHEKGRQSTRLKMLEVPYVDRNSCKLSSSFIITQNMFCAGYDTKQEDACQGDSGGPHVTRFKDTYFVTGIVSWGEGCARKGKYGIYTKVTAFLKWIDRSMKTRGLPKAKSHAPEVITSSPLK
Protein,KM,kcat (Catalytic activity of FIXa variants),kcat/KM
B1,0.0433 µM,7.2 s⁻¹,–
B2,0.0334 µM,4.8 s⁻¹,–
B3,0.0753 µM,4.7 s⁻¹,–
B4,0.059 µM,5.2 s⁻¹,–
B5,0.0309 µM,1.7 s⁻¹,–
B6,0.0153 µM,4.3 s⁻¹,3e+08 M⁻¹ s⁻¹
B7,0.0162 µM,6.2 s⁻¹,3.8e+08 M⁻¹ s⁻¹
B8,0.0351 µM,5.8 s⁻¹,1.8e+08 M⁻¹ s⁻¹
B9,0.0397 µM,4.1 s⁻¹,1e+08 M⁻¹ s⁻¹
B10,0.0391 µM,6.5 s⁻¹,1.8e+08 M⁻¹ s⁻¹
B11,0.0392 µM,5.8 s⁻¹,–
B12,0.048 µM,9.7 s⁻¹,2e+08 M⁻¹ s⁻¹
B13,0.0393 µM,6 s⁻¹,–
B14,0.0166 µM,3.8 s⁻¹,–
